Source: the supplement of paper PMC12764529
± gives the half width of the 95% confidence interval.

Test: folding stability dG unfold from chymotrypsin proteolysis; higher = more stable
Outline: (§1)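 How resistant each design was to proteolysis was captured as K50, inferred by Bayesian fitting of sequencing counts. Unfolding free energy was then derived relative to a sequence-predicted unfolded-state K50 and a shared folded-state K50, per protease or combined. Digestion used trypsin and chymotrypsin at 11 threefold-diluted concentrations plus a no-protease condition, on mini-proteins under 80 residues without cysteine in a PA-tagged cDNA display construct. Designs were kept only when AlphaFold2 dimer inter-PAE was above 15.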

Sequence	folding stability dG unfold [kcal/mol]
SAGGSAGGSAGGSSEPVVILVPVLPDAEEAVVDIGGHPALVKRFPDSPLAAITVPKELLSAGGSAGGSAGGS [r4_430_TrMRF]	-0.581 ± 0.048
SAGGSAKATLPEGVKIETKTFKLDGRKYMPFVFEAPDDDWVWVNEMRMDPNGKMEMETIWIPPDAVSAGGSA [r15_986_TrROS]	0.384 ± 0.44
SAGGSAGGGGMTVTITVPVPSPTATYTVSFPSSSATASFTAEPGGPLTITVNAPSVTSITVTVSSAGGSAGG [r6_808_JUSTAS]	3.98 ± 0.053
SAGGPITITYDEETGVLTITITVPSLEEAEALIKALLPPGAEATRITVERNEDGSVTVTVEIRLPKGLSAGG [r13_338_TrROS_Hall]	1.49 ± 0.024
SAGGSAGGSAGGMSPGSSSTTVTTTTSPNGTVVTTTTTTTLDPNSNTTSSTTTTTTTTTSAGGSAGGSAGGS [r10_1164_JUSTAS]	1.74 ± 0.18
SAMYEPAEFSFTLPNGEKIHITAPKNPNTDEPIVSITIYRKLPDGNTVSFTITVKSSDIDEIIEKLGIKSAG [r14_416_TrMRF]	3.74 ± 0.11
SAGGSAGGSWFIRVEYKRPNGQPKTLQIPVPRDQLKKMSIDEIKDRAENLGLPPNVKIEWYPFSAGGSAGGS [r12_742_TrROS]	1.78 ± 0.061
SAGGPLSEEELEALRKALEAARAAGAETVTLTATLTVTRTVTLPDGSTRTETRTLTLTLTVTLPPEESAGGS [r8_203_TrROS_Hall]	4.73 ± 0.079
SAGGSAMKLPKNVKITITKNKDGTVTITITYPDGKKITITMKIDKNGKLKFTKEQIKKLIKELAKKSAGGSA [r15_780_TrROS_Hall]	2.52 ± 0.082
SAGGSAGGKKLEELKEKLKKLKPKPELEVEIKIVMSKEEAEKLAKELEKLPNIKKVRVEILEPDSAGGSAGG [r6_284_TrROS_Hall]	-0.0934 ± 0.11
SAGGSAWEFVKEIAKELQEKHPGYQVNVDVEPQRNPENDRRYIRIWIHVQDKNGEIRRTWEIMIPFSAGGSA [r15_1048_TrROS]	3.461 ± 0.018
SAGGSAGGSMELVIKTVTVNSPSKSPEELAKEIEEKYGVKILKVEVTEDPEGGVTVTATIINKSAGGSAGGS [r12_359_JUSTAS]	1.34 ± 0.015
SAGGSAGGSAGGMAASVSPSVSYDPNTPVTNTKYTITTDGGVTPTTVVTPVVTPPPSPALSAGGSAGGSAGG [r7_413_JUSTAS]	0.149 ± 0.11
SAGGSAGGSADGNTPVEVTITLTDPKTGAVTTVPVVLPTSVSVEEVAAELAAKFGLTTVTVTSAGGSAGGSA [r18_58_JUSTAS]	0.521 ± 0.04
SAGGSAGGSAGGLGPDTPYATLSVTLTFTVRLKVRDPVTGKEYEIEYDVTLTFTFTVPASAGGSAGGSAGGS [r10_1116_TrMRF]	5.84 ± 0.31
SAGGSMKLTTTTPDGKPFEADVTEYPTFYKITFKVGNKEYTLLANPSTNTVDGNVDGFPFKLKLNPSAGGSA [r2_194_TrMRF]	1.25 ± 0.18
SAGGSAGGKGKLVDEPPIRDPNNGKDVWAFIMDPDGRMEVYDPNEIEEIPLKPGQIMIFTPEDLSAGGSAGG [r6_627_TrROS]	0.168 ± 0.34

Test: folding stability dG unfold from trypsin proteolysis; higher = more stable
Outline: as §1

Sequence	folding stability dG unfold [kcal/mol]
SAGGSAGGSAGGSSEPVVILVPVLPDAEEAVVDIGGHPALVKRFPDSPLAAITVPKELLSAGGSAGGSAGGS [r4_430_TrMRF]	0.0985 ± 0.033
SAGGSAKATLPEGVKIETKTFKLDGRKYMPFVFEAPDDDWVWVNEMRMDPNGKMEMETIWIPPDAVSAGGSA [r15_986_TrROS]	0.368 ± 0.32
SAGGSAGGGGMTVTITVPVPSPTATYTVSFPSSSATASFTAEPGGPLTITVNAPSVTSITVTVSSAGGSAGG [r6_808_JUSTAS]	3.03 ± 0.1
SAGGPITITYDEETGVLTITITVPSLEEAEALIKALLPPGAEATRITVERNEDGSVTVTVEIRLPKGLSAGG [r13_338_TrROS_Hall]	2.99 ± 0.08
SAGGSAGGSAGGMSPGSSSTTVTTTTSPNGTVVTTTTTTTLDPNSNTTSSTTTTTTTTTSAGGSAGGSAGGS [r10_1164_JUSTAS]	3.15 ± 0.25
SAMYEPAEFSFTLPNGEKIHITAPKNPNTDEPIVSITIYRKLPDGNTVSFTITVKSSDIDEIIEKLGIKSAG [r14_416_TrMRF]	3.39 ± 0.095
SAGGSAGGSWFIRVEYKRPNGQPKTLQIPVPRDQLKKMSIDEIKDRAENLGLPPNVKIEWYPFSAGGSAGGS [r12_742_TrROS]	1.04 ± 0.032
SAGGPLSEEELEALRKALEAARAAGAETVTLTATLTVTRTVTLPDGSTRTETRTLTLTLTVTLPPEESAGGS [r8_203_TrROS_Hall]	3.74 ± 0.1
SAGGSAMKLPKNVKITITKNKDGTVTITITYPDGKKITITMKIDKNGKLKFTKEQIKKLIKELAKKSAGGSA [r15_780_TrROS_Hall]	2.74 ± 0.089
SAGGSAGGKKLEELKEKLKKLKPKPELEVEIKIVMSKEEAEKLAKELEKLPNIKKVRVEILEPDSAGGSAGG [r6_284_TrROS_Hall]	-0.155 ± 0.069
SAGGSAWEFVKEIAKELQEKHPGYQVNVDVEPQRNPENDRRYIRIWIHVQDKNGEIRRTWEIMIPFSAGGSA [r15_1048_TrROS]	3.22 ± 0.053
SAGGSAGGSMELVIKTVTVNSPSKSPEELAKEIEEKYGVKILKVEVTEDPEGGVTVTATIINKSAGGSAGGS [r12_359_JUSTAS]	1.72 ± 0.065
SAGGSAGGSAGGMAASVSPSVSYDPNTPVTNTKYTITTDGGVTPTTVVTPVVTPPPSPALSAGGSAGGSAGG [r7_413_JUSTAS]	-0.148 ± 0.16
SAGGSAGGSADGNTPVEVTITLTDPKTGAVTTVPVVLPTSVSVEEVAAELAAKFGLTTVTVTSAGGSAGGSA [r18_58_JUSTAS]	1.06 ± 0.027
SAGGSAGGSAGGLGPDTPYATLSVTLTFTVRLKVRDPVTGKEYEIEYDVTLTFTFTVPASAGGSAGGSAGGS [r10_1116_TrMRF]	5.07 ± 0.54
SAGGSMKLTTTTPDGKPFEADVTEYPTFYKITFKVGNKEYTLLANPSTNTVDGNVDGFPFKLKLNPSAGGSA [r2_194_TrMRF]	1.28 ± 0.1
SAGGSAGGKGKLVDEPPIRDPNNGKDVWAFIMDPDGRMEVYDPNEIEEIPLKPGQIMIFTPEDLSAGGSAGG [r6_627_TrROS]	0.757 ± 0.069

Test: folding stability dG unfold (combined trypsin and chymotrypsin); higher = more stable
Outline: as §1

Sequence	folding stability dG unfold [kcal/mol]
SAGGSAGGSAGGSSEPVVILVPVLPDAEEAVVDIGGHPALVKRFPDSPLAAITVPKELLSAGGSAGGSAGGS [r4_430_TrMRF]	-0.149 ± 0.066
SAGGSAKATLPEGVKIETKTFKLDGRKYMPFVFEAPDDDWVWVNEMRMDPNGKMEMETIWIPPDAVSAGGSA [r15_986_TrROS]	0.375 ± 0.23
SAGGSAGGGGMTVTITVPVPSPTATYTVSFPSSSATASFTAEPGGPLTITVNAPSVTSITVTVSSAGGSAGG [r6_808_JUSTAS]	3.63 ± 0.11
SAGGPITITYDEETGVLTITITVPSLEEAEALIKALLPPGAEATRITVERNEDGSVTVTVEIRLPKGLSAGG [r13_338_TrROS_Hall]	2.31 ± 0.062
SAGGSAGGSAGGMSPGSSSTTVTTTTSPNGTVVTTTTTTTLDPNSNTTSSTTTTTTTTTSAGGSAGGSAGGS [r10_1164_JUSTAS]	2.42 ± 0.25
SAMYEPAEFSFTLPNGEKIHITAPKNPNTDEPIVSITIYRKLPDGNTVSFTITVKSSDIDEIIEKLGIKSAG [r14_416_TrMRF]	3.67 ± 0.32
SAGGSAGGSWFIRVEYKRPNGQPKTLQIPVPRDQLKKMSIDEIKDRAENLGLPPNVKIEWYPFSAGGSAGGS [r12_742_TrROS]	1.55 ± 0.056
SAGGPLSEEELEALRKALEAARAAGAETVTLTATLTVTRTVTLPDGSTRTETRTLTLTLTVTLPPEESAGGS [r8_203_TrROS_Hall]	4.45 ± 0.12
SAGGSAMKLPKNVKITITKNKDGTVTITITYPDGKKITITMKIDKNGKLKFTKEQIKKLIKELAKKSAGGSA [r15_780_TrROS_Hall]	2.53 ± 0.22
SAGGSAGGKKLEELKEKLKKLKPKPELEVEIKIVMSKEEAEKLAKELEKLPNIKKVRVEILEPDSAGGSAGG [r6_284_TrROS_Hall]	0.0502 ± 0.17
SAGGSAWEFVKEIAKELQEKHPGYQVNVDVEPQRNPENDRRYIRIWIHVQDKNGEIRRTWEIMIPFSAGGSA [r15_1048_TrROS]	3.44 ± 0.12
SAGGSAGGSMELVIKTVTVNSPSKSPEELAKEIEEKYGVKILKVEVTEDPEGGVTVTATIINKSAGGSAGGS [r12_359_JUSTAS]	1.49 ± 0.041
SAGGSAGGSAGGMAASVSPSVSYDPNTPVTNTKYTITTDGGVTPTTVVTPVVTPPPSPALSAGGSAGGSAGG [r7_413_JUSTAS]	0.198 ± 0.17
SAGGSAGGSADGNTPVEVTITLTDPKTGAVTTVPVVLPTSVSVEEVAAELAAKFGLTTVTVTSAGGSAGGSA [r18_58_JUSTAS]	0.864 ± 0.037
SAGGSAGGSAGGLGPDTPYATLSVTLTFTVRLKVRDPVTGKEYEIEYDVTLTFTFTVPASAGGSAGGSAGGS [r10_1116_TrMRF]	5.58 ± 0.4
SAGGSMKLTTTTPDGKPFEADVTEYPTFYKITFKVGNKEYTLLANPSTNTVDGNVDGFPFKLKLNPSAGGSA [r2_194_TrMRF]	1.25 ± 0.18
SAGGSAGGKGKLVDEPPIRDPNNGKDVWAFIMDPDGRMEVYDPNEIEEIPLKPGQIMIFTPEDLSAGGSAGG [r6_627_TrROS]	0.648 ± 0.16
